{
  "source": "paper PMC10370305",
  "about": "“Functional Degeneracy in Paracoccus denitrificans Pd1222 Is Coordinated via RamB, Which Links Expression of the Glyoxylate Cycle to Activity of the Ethylmalonyl-CoA Pathway” (Applied and Environmental Microbiology, 2023)",
  "key": {"[1]": {"target": "T1, RamBPd (Pden_1365) (Paracoccus denitrificans, UniProt A1B1S2)", "T1 construct": "purified RamBPd, His-SUMO tag cleaved off", "T1 sequence (A1B1S2 1-477)": "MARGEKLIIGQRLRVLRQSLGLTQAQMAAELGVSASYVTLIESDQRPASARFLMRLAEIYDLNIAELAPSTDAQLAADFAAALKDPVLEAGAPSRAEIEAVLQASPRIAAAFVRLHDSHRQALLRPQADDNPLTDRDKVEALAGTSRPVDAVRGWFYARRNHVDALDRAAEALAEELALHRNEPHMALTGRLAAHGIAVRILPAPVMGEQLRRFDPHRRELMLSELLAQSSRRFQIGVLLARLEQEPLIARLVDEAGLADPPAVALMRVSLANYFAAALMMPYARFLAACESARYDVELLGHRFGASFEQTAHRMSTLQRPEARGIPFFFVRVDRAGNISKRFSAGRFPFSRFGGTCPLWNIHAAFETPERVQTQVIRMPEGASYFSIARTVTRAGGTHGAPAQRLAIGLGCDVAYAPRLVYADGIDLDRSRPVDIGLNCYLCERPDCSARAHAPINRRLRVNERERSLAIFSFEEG", "test": "mass photometry titration (tetramer to dimer shift; saturation at […], […] dimer to tetramer)", "type": "binding"}, "[2]": {"target": "RamBPd (Pden_1365), regulator of acetate metabolism of Paracoccus denitrificans Pd1222 (Paracoccus denitrificans Pd1222)", "test": "mass photometry; 250 nM RamBPd in PBS (pH 7.4), pre-incubated for 35 min with rising concentrations of free CoA or of a CoA ester (ethylmalonyl-, methylsuccinyl-, mesaconyl-, crotonyl-, beta-methylmalyl-CoA); tetramer to dimers"}, "[3]": {"target": "RamBPd (Pden_1365), regulator of acetate metabolism of Paracoccus denitrificans Pd1222 (Paracoccus denitrificans Pd1222)", "test": "mass photometry; 250 nM RamBPd in PBS (pH 7.4), no supplement; Refeyn One mass photometer"}, "[4]": {"target": "T1, RamBPd (Pden_1365)", "test": "mass photometry titration (tetramer to dimer shift)", "type": "binding"}},
  "data": [
    {"compound": "CC(C)(COP(=O)(O)OP(=O)(O)OC[C@H]1O[C@@H](n2cnc3c(N)ncnc32)[C@H](O)[C@@H]1OP(=O)(O)O)[C@@H](O)C(=O)NCCC(=O)NCCS", "note": "[CoA]", "values": [
      {"measurement": "mass photometry titration (tetramer to dimer shift); saturation at 62.5 μM, 1:1 d", "setting": "[1]", "value": "tetrameric RamBPd complex dissociates into a dimer upon the addition of CoA"}
    ]},
    {"compound": "RamBPd (Pden_1365), regulator of acetate metabolism of Paracoccus denitrificans Pd1222 (natural protein)", "values": [
      {"measurement": "ratio of dimer to tetramer at saturation with 62.5 uM free CoA (dimer:tetramer)", "setting": "[2]", "value": 1},
      {"measurement": "ratio of dimers to tetramers with beta-methylmalyl-CoA (dimer:tetramer)", "setting": "[2]", "value": 9},
      {"measurement": "ratio of dimers to tetramers with crotonyl-CoA (dimer:tetramer)", "setting": "[2]", "value": 3},
      {"measurement": "ratio of dimers to tetramers with mesaconyl-CoA (dimer:tetramer)", "setting": "[2]", "value": 3},
      {"measurement": "stoichiometry N", "setting": "[2]", "value": 2},
      {"measurement": "stoichiometry N", "setting": "[3]", "value": 4}
    ]},
    {"compound": "C[C@@H](C(=O)SCCNC(=O)CCNC(=O)[C@H](O)C(C)(C)COP(=O)(O)OP(=O)(O)OC[C@H]1O[C@@H](n2cnc3c(N)ncnc32)[C@H](O)[C@@H]1OP(=O)(O)O)[C@H](O)C(=O)O", "note": "[β-methylmalyl-CoA]", "values": [
      {"measurement": "Kd", "setting": "[4]", "value": "~700", "unit": "µM"}
    ]}
  ]
}
